The record followed here is paper PMC2936869, “Secreted fungal sulfhydryl oxidases: sequence analysis and characterisation of a representative flavin-dependent enzyme from Aspergillus oryzae” (BMC Biochemistry, 2010).

In one data set the target is T1, AoSOX1 (Aspergillus oryzae, UniProt Q2UA33).
T1 construct: gene AO090102000564; secreted full-length protein, 384 aa including predicted 19-residue signal peptide (removed); C-terminal His6 tag added but apparently cleaved off by host protease; expressed in Trichoderma reesei; N-glycosylated; MW 43959 by MS
T1 sequence (Q2UA33 20-384): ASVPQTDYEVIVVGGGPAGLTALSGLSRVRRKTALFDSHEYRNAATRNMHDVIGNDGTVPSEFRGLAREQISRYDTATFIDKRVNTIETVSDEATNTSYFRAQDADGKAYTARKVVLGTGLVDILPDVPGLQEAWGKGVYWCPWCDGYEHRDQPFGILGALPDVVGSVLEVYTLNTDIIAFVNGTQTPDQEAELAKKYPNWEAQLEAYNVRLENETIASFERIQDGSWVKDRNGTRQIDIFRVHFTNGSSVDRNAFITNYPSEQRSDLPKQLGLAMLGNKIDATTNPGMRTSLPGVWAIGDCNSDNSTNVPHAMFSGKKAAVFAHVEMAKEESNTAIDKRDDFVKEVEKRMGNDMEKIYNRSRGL
As to the kind of experiment: UV/visible absorption; cofactor released by thermal and chemical denaturation. The data set is classed as binding. As to conditions: non-covalently bound cofactor; 20 mM Tris-HCl pH 7.0, 25 °C.

Substrate in data set [1]: N[C@@H](CS)C(=O)O
Put plainly: initial rates, Michaelis-Menten (HVA-peroxidase coupled assay, the paper's general assay). It is filed as biochemical, Aspergillus oryzae. As to conditions: co-substrate O2, general assay in 50 mM potassium phosphate, 0.3 mM EDTA, pH 7.5. The text has this: (§1) initial rates, Michaelis-Menten (HVA-peroxidase coupled assay, the paper's general assay) on AoSOX1

Substrate in data set [2]: OCCS
The description is as above. The data set is classed as biochemical, Aspergillus oryzae. The note with it: co-substrate O2, general assay in 50 mM potassium phosphate, 0.3 mM EDTA, pH 7.5.
Source text: as §1

Substrate in data set [3]: N[C@H](CS)C(=O)O
The description is as above. The data set is classed as biochemical, Aspergillus oryzae. The note with it: co-substrate O2, general assay in 50 mM potassium phosphate, 0.3 mM EDTA, pH 7.5.
Source text: as §1

Turning to `Cc1cc2nc3c(=O)[nH]c(=O)nc-3n(C[C@H](O)[C@H](O)[C@H](O)COP(=O)(O)OP(=O)(O)OC[C@H]3O[C@@H](n4cnc5c(N)ncnc54)[C@H](O)[C@@H]3O)c2cc1C` [FAD], the “UV/visible absorption; cofactor released by thermal and chemical denaturation” value at AoSOX1 is given as “The cofactor was spectrophotometrically identified to be FAD after the cofactor was released”.

B1: AoSOX1 (Aspergillus oryzae RIB40) (protein)
chain: ASVPQTDYEVIVVGGGPAGLTALSGLSRVRRKTALFDSHEYRNAATRNMHDVIGNDGTVPSEFRGLAREQISRYDTATFIDKRVNTIETVSDEATNTSYFRAQDADGKAYTARKVVLGTGLVDILPDVPGLQEAWGKGVYWCPWCDGYEHRDQPFGILGALPDVVGSVLEVYTLNTDIIAFVNGTQTPDQEAELAKKYPNWEAQLEAYNVRLENETIASFERIQDGSWVKDRNGTRQIDIFRVHFTNGSSVDRNAFITNYPSEQRSDLPKQLGLAMLGNKIDATTNPGMRTSLPGVWAIGDCNSDNSTNVPHAMFSGKKAAVFAHVEMAKEESNTAIDKRDDFVKEVEKRMGNDMEKIYNRSRGL
notes: secreted full-length protein, 384 aa including predicted 19-residue signal peptide (removed); C-terminal His6 tag added but apparently cleaved off by host protease; expressed in Trichoderma reesei; N-glycosylated; MW 43959 by MS
As for B1, the Km in data set [1] came to 6.11 ± 0.13 mM; in data set [2], 9.73 ± 0.08 mM; in data set [3], 1.55 ± 0.03 mM. Moreover, the Vmax/Km in data set [1] stood at 21800 min⁻¹; in data set [2], 13100 min⁻¹; in data set [3] it was 9780 min⁻¹. Besides, the kcat in data set [3] came out at 5950 s⁻¹.

Usually Km stands for the concentration of substrate that gives half-maximal velocity. One may read the kcat as the number of substrate molecules converted per active site and unit of time at saturation.
